Reference: the Immune Epitope Database (IEDB)

Assays:
[1] = molecular target: HLA-A*24:03; experiment: IEDB peptide-MHC binding, purified MHC/competitive/fluorescence; filed as Kd, often an IC50 or EC50 that approximates it; ≥ and ≤ were set here for values at or beyond the usual limits of such assays
[2] = molecular target: HLA-B*15:01; experiment: as above
[3] = molecular target: HLA-B*58:01; experiment: as above
[4] = molecular target: HLA-A*02:03; experiment: IEDB peptide-MHC binding, purified MHC/direct/fluorescence; filed as Kd, often an IC50 or EC50 that approximates it; ≥ and ≤ were set here for values at or beyond the usual limits of such assays
[5] = molecular target: HLA-A*02:11; experiment: as above
[6] = molecular target: HLA-A*02:12; experiment: as above
[7] = molecular target: HLA-A*02:16; experiment: as above
[8] = molecular target: HLA-A*02:19; experiment: as above
[9] = molecular target: HLA-A*03:01; experiment: as above
[10] = molecular target: HLA-A*23:01; experiment: as above; conditions: source organism: Zaire ebolavirus
[11] = molecular target: HLA-A*24:03; experiment: as above
[12] = molecular target: HLA-A*29:02; experiment: as above; conditions: source organism: Zaire ebolavirus
[13] = molecular target: HLA-A*68:02; experiment: as above
[14] = molecular target: HLA-B*07:02; experiment: as above; conditions: source organism: Sudan ebolavirus - Maleo (1979)
[15] = molecular target: HLA-A*02:01; experiment: IEDB peptide-MHC binding, purified MHC/competitive/fluorescence; filed as Kd, often an IC50 or EC50 that approximates it; ≥ and ≤ were set here for values at or beyond the usual limits of such assays
[16] = molecular target: HLA-A*26:01; experiment: as above
[17] = molecular target: HLA-A*69:01; experiment: as above; conditions: source organism: Zaire ebolavirus
[18] = molecular target: HLA-B*15:17; experiment: as above; conditions: source organism: Zaire ebolavirus
[19] = molecular target: HLA-B*18:01; experiment: as above
[20] = molecular target: HLA-B*27:03; experiment: as above
[21] = molecular target: HLA-B*39:01; experiment: as above
[22] = molecular target: HLA-B*46:01; experiment: as above
[23] = molecular target: HLA-B*51:01; experiment: as above
[24] = molecular target: HLA-B*57:01; experiment: as above
[25] = molecular target: HLA-A*02:03; experiment: as above; conditions: source organism: Vibrio vulnificus CMCP6
[26] = molecular target: HLA-A*02:11; experiment: as above; conditions: source organism: Vibrio vulnificus CMCP6
[27] = molecular target: HLA-A*02:12; experiment: as above; conditions: source organism: Vibrio vulnificus CMCP6
[28] = molecular target: HLA-A*02:19; experiment: as above; conditions: source organism: Vibrio vulnificus CMCP6
[29] = molecular target: HLA-A*03:01; experiment: as above; conditions: source organism: Vibrio vulnificus CMCP6
[30] = molecular target: HLA-A*23:01; experiment: as above; conditions: source organism: Vibrio vulnificus CMCP6
[31] = molecular target: HLA-A*29:02; experiment: as above; conditions: source organism: Vibrio vulnificus CMCP6
[32] = molecular target: HLA-A*01:01; experiment: IEDB peptide-MHC binding, purified MHC/direct/fluorescence; filed as Kd, often an IC50 or EC50 that approximates it; ≥ and ≤ were set here for values at or beyond the usual limits of such assays; conditions: source organism: Sudan ebolavirus - Maleo (1979)
[33] = molecular target: HLA-A*26:01; experiment: as above
[34] = molecular target: HLA-C*14:02; experiment: as above; conditions: source organism: Mycobacterium tuberculosis H37Rv
[35] = molecular target: HLA-C*15:02; experiment: as above; conditions: source organism: Mycobacterium tuberculosis H37Rv
[36] = molecular target: HLA-B*35:01; experiment: IEDB peptide-MHC binding, purified MHC/competitive/fluorescence; filed as Kd, often an IC50 or EC50 that approximates it; ≥ and ≤ were set here for values at or beyond the usual limits of such assays; conditions: source organism: Mycobacterium tuberculosis H37Rv
[37] = source organism: Escherichia coli 536
[38] = source organism: Zaire ebolavirus
[39] = source organism: Vibrio vulnificus CMCP6
[40] = source organism: Ravn virus - Ravn, Kenya, 1987

Measured: Kd

QMLPGYFRF
0.223 µM: [2]; [37]
0.0002 µM: [1]; [37]
0.046 µM: [3]; [37]

TPSHYSGNI
≥ 20 µM: [4]; [38] | [5]; [38] | [6]; [38] | [7]; [38] | [8]; [38] | [9]; [38] | [10] | [11]; [38] | [12] | [13]; [38] | [15]; [38] | [16]; [38] | [17] | [2]; [38] | [18] | [19]; [38] | [20]; [38] | [21]; [38] | [22]; [38] | [23]; [38] | [24]; [38]
0.442 µM: [14]

WLAGFEPSE
≥ 20 µM: [15]; [39] | [25] | [26] | [28] | [29] | [30] | [1]; [39] | [16]; [39] | [31] | [2]; [39] | [19]; [39] | [20]; [39] | [21]; [39] | [22]; [39] | [23]; [39] | [24]; [39]
0.453 µM: [27]

YSGNIVHRY
0.0896 µM: [32]
≥ 20 µM: [4]; [40] | [5]; [40] | [6]; [40] | [7]; [40] | [8]; [40] | [9]; [40] | [11]; [40] | [13]; [40] | [15]; [38] | [17] | [20]; [38] | [21]; [38] | [22]; [38] | [23]; [38]
0.0647 µM: [3]; [38]
1.55 µM: [33]; source organism: Sudan ebolavirus - Maleo (1979)

YVRTNGASY
0.026 µM: [33]; source organism: Mycobacterium tuberculosis
0.0646 µM: [36]
≥ 20 µM: [35]
2.22 µM: [22]; source organism: Mycobacterium tuberculosis H37Rv
0.353 µM: [34]
